Data taken from patent publication US20200270588A1, “GLUCOSYL TRANSFERASE POLYPEPTIDES AND METHODS OF USE” (Syngenta Participations AG, priority 2017, published 2020).

Assay: UDP luminescence plate assay of E. coli extracts, saturation mutants of SEQ ID NO: 1, herbicide V
Type: biochemical, Zea mays
Conditions: improvement factor relative to w/t bx9 = 1.0, rounded to nearest 0.5; extract activity basis; compound V
Experimental: Competent BL21 (DE3) cells are transformed as in the foregoing examples and, following seed culturing, grown and autoinduced in plates in a 0.5-1 ml volume of autoinduction medium containing 50 ug/ml kanamycin. Plates are incubated at 37° C. and shaken at 900 rpm. Growth is monitored by taking 20 ul aliquots, diluting 10 fold into flat-bottomed 96 well microtiter plates and reading OD600n at t=0, 1, 2, 2½ and 3 hours if necessary. At a (corrected) OD600 nm˜0.2, plates are transferred to 20° C. and shaken overnight at 900 rpm in a Jencons VWR plate incubator. After ˜18-20 h the final OD600 readings are recorded and the plates centrifuged at 4600 rpm (bench top centrifuge) for 10 min at 4° C. The supernatant is discarded and the pellets then washed with 0.25 ml PBS by repeat centrifugation and removal of supernatant before freezing cell pellets at −80° C. To prepare extracts, plates are allowed to thaw for 30 min and then pellets are resuspended in 0.25 ml of a suitable lysis buffer (for example—50 mM Tris HCL buffer at pH 8.0, 5% glycerol containing 50 mM NaCl and lysonase) mixed, incubated at room temperature for a sufficient time for lysis to be near complete and then centrifuged to remove cell debris and 100 ul of supernatant extract removed to a 96 well V-shaped well plate and stored on ice prior to assay.
Optionally plate assays are stopped with brief heating to 95 C before returning to ice and addition of UDP-Glo detection reagent followed by incubation at lab temperature. […] In addition a UDP standard curve is run alongside each set of plate tests.
Making use of the ELISA assay it is then possible to calculate a specific activity (e.g. in Relative Luminescence Units (RLU)/min/ug bx protein) based upon the amount of each mutant bx9 polypeptide expressed in each well. […] The specific activity of the various test mutant extracts on the same plate are then expressed as a fraction of the specific activity of the w/t bx9 and thus the ‘improvement factor’ versus the w/t expressed as a decimal where, for example, ‘0.5’ means half the specific activity of the wild type and 2.0 means twice the specific activity of the wild type. However, as will be readily apparent to the skilled man, particularly in cases where the UDP assay signal was low (with poor signal to noise versus the background) and/or the ELISA measurement of bx protein also low such a method is prone to generate spurious high specific activity numbers and uncertain numbers.

Molecule | Preferred amino acid substitutions and (IF) based on RLU/min/ul | Most Preferred amino acid substitutions and (IF) based on RLU/min/ul
V370L: bx9 SEQ ID NO:1 mutant (protein, Zea mays) MASSRTGAGAGGRVVVFPFPFQGHFNPVMRLARALHARGLAITVFHSGALDPADYPADYRFVPVTVEADPKLLASEDIAAIVTTLNASCDAPFRARLSALLAAEGRDSVRCVFTDVSWNAVLTASSDLGVPALGMMTASAASLRDYMAYRTLIDKGYLPVKEERKEDPVPELPPYLVKDLLRVDTSDLEEFAELLARTVTAARRASGLIFNTFPLIETDTLAEIHKALSVPVFAVAPLNKLVPTATASLHGVVQADRGCLQWLDTQQPGSVLYVSFGSMAAMDPHEFVELAWGLADSKRPFVWVVRPNLIRGFESGALPDGVEDEVRGRGIVVAWAPQEEVLAHPAVGGFLTHNGWNSTVEAISEGVPMLCCPRHGDQFGNMRYVCDVWKVGTELVGEQLERGQVKAAIDRLFGTKEGEEIKERMKEFKIAAAKGIGIGVDVDETASPRTDLTDLVDLIKSF | T,C,L,M(1.0) | –
Q22P: bx9 SEQ ID NO:1 mutant (protein, Zea mays) MASSRTGAGAGGRVVVFPFPFPGHFNPVMRLARALHARGLAITVFHSGALDPADYPADYRFVPVTVEADPKLLASEDIAAIVTTLNASCDAPFRARLSALLAAEGRDSVRCVFTDVSWNAVLTASSDLGVPALGMMTASAASLRDYMAYRTLIDKGYLPVKEERKEDPVPELPPYLVKDLLRVDTSDLEEFAELLARTVTAARRASGLIFNTFPLIETDTLAEIHKALSVPVFAVAPLNKLVPTATASLHGVVQADRGCLQWLDTQQPGSVLYVSFGSMAAMDPHEFVELAWGLADSKRPFVWVVRPNLIRGFESGALPDGVEDEVRGRGIVVAWAPQEEVLAHPAVGGFLTHNGWNSTVEAISEGVPMVCCPRHGDQFGNMRYVCDVWKVGTELVGEQLERGQVKAAIDRLFGTKEGEEIKERMKEFKIAAAKGIGIGVDVDETASPRTDLTDLVDLIKSF | H,P,M(1.0) | –
V370A: bx9 SEQ ID NO:1 mutant (protein, Zea mays) MASSRTGAGAGGRVVVFPFPFQGHFNPVMRLARALHARGLAITVFHSGALDPADYPADYRFVPVTVEADPKLLASEDIAAIVTTLNASCDAPFRARLSALLAAEGRDSVRCVFTDVSWNAVLTASSDLGVPALGMMTASAASLRDYMAYRTLIDKGYLPVKEERKEDPVPELPPYLVKDLLRVDTSDLEEFAELLARTVTAARRASGLIFNTFPLIETDTLAEIHKALSVPVFAVAPLNKLVPTATASLHGVVQADRGCLQWLDTQQPGSVLYVSFGSMAAMDPHEFVELAWGLADSKRPFVWVVRPNLIRGFESGALPDGVEDEVRGRGIVVAWAPQEEVLAHPAVGGFLTHNGWNSTVEAISEGVPMACCPRHGDQFGNMRYVCDVWKVGTELVGEQLERGQVKAAIDRLFGTKEGEEIKERMKEFKIAAAKGIGIGVDVDETASPRTDLTDLVDLIKSF | A,I(1.5) | –
F21Y: bx9 SEQ ID NO:1 mutant (protein, Zea mays) MASSRTGAGAGGRVVVFPFPYQGHFNPVMRLARALHARGLAITVFHSGALDPADYPADYRFVPVTVEADPKLLASEDIAAIVTTLNASCDAPFRARLSALLAAEGRDSVRCVFTDVSWNAVLTASSDLGVPALGMMTASAASLRDYMAYRTLIDKGYLPVKEERKEDPVPELPPYLVKDLLRVDTSDLEEFAELLARTVTAARRASGLIFNTFPLIETDTLAEIHKALSVPVFAVAPLNKLVPTATASLHGVVQADRGCLQWLDTQQPGSVLYVSFGSMAAMDPHEFVELAWGLADSKRPFVWVVRPNLIRGFESGALPDGVEDEVRGRGIVVAWAPQEEVLAHPAVGGFLTHNGWNSTVEAISEGVPMVCCPRHGDQFGNMRYVCDVWKVGTELVGEQLERGQVKAAIDRLFGTKEGEEIKERMKEFKIAAAKGIGIGVDVDETASPRTDLTDLVDLIKSF | – | Y(2.0)
Q22H: bx9 SEQ ID NO:1 mutant (protein, Zea mays) MASSRTGAGAGGRVVVFPFPFHGHFNPVMRLARALHARGLAITVFHSGALDPADYPADYRFVPVTVEADPKLLASEDIAAIVTTLNASCDAPFRARLSALLAAEGRDSVRCVFTDVSWNAVLTASSDLGVPALGMMTASAASLRDYMAYRTLIDKGYLPVKEERKEDPVPELPPYLVKDLLRVDTSDLEEFAELLARTVTAARRASGLIFNTFPLIETDTLAEIHKALSVPVFAVAPLNKLVPTATASLHGVVQADRGCLQWLDTQQPGSVLYVSFGSMAAMDPHEFVELAWGLADSKRPFVWVVRPNLIRGFESGALPDGVEDEVRGRGIVVAWAPQEEVLAHPAVGGFLTHNGWNSTVEAISEGVPMVCCPRHGDQFGNMRYVCDVWKVGTELVGEQLERGQVKAAIDRLFGTKEGEEIKERMKEFKIAAAKGIGIGVDVDETASPRTDLTDLVDLIKSF | H,P,M(1.0) | –
C372I: bx9 SEQ ID NO:1 mutant (protein, Zea mays) MASSRTGAGAGGRVVVFPFPFQGHFNPVMRLARALHARGLAITVFHSGALDPADYPADYRFVPVTVEADPKLLASEDIAAIVTTLNASCDAPFRARLSALLAAEGRDSVRCVFTDVSWNAVLTASSDLGVPALGMMTASAASLRDYMAYRTLIDKGYLPVKEERKEDPVPELPPYLVKDLLRVDTSDLEEFAELLARTVTAARRASGLIFNTFPLIETDTLAEIHKALSVPVFAVAPLNKLVPTATASLHGVVQADRGCLQWLDTQQPGSVLYVSFGSMAAMDPHEFVELAWGLADSKRPFVWVVRPNLIRGFESGALPDGVEDEVRGRGIVVAWAPQEEVLAHPAVGGFLTHNGWNSTVEAISEGVPMVCIPRHGDQFGNMRYVCDVWKVGTELVGEQLERGQVKAAIDRLFGTKEGEEIKERMKEFKIAAAKGIGIGVDVDETASPRTDLTDLVDLIKSF | I(1.0) | –
G376C: bx9 SEQ ID NO:1 mutant (protein, Zea mays) MASSRTGAGAGGRVVVFPFPFQGHFNPVMRLARALHARGLAITVFHSGALDPADYPADYRFVPVTVEADPKLLASEDIAAIVTTLNASCDAPFRARLSALLAAEGRDSVRCVFTDVSWNAVLTASSDLGVPALGMMTASAASLRDYMAYRTLIDKGYLPVKEERKEDPVPELPPYLVKDLLRVDTSDLEEFAELLARTVTAARRASGLIFNTFPLIETDTLAEIHKALSVPVFAVAPLNKLVPTATASLHGVVQADRGCLQWLDTQQPGSVLYVSFGSMAAMDPHEFVELAWGLADSKRPFVWVVRPNLIRGFESGALPDGVEDEVRGRGIVVAWAPQEEVLAHPAVGGFLTHNGWNSTVEAISEGVPMVCCPRHCDQFGNMRYVCDVWKVGTELVGEQLERGQVKAAIDRLFGTKEGEEIKERMKEFKIAAAKGIGIGVDVDETASPRTDLTDLVDLIKSF | C,M(1.0) | –
V370M: bx9 SEQ ID NO:1 mutant (protein, Zea mays) MASSRTGAGAGGRVVVFPFPFQGHFNPVMRLARALHARGLAITVFHSGALDPADYPADYRFVPVTVEADPKLLASEDIAAIVTTLNASCDAPFRARLSALLAAEGRDSVRCVFTDVSWNAVLTASSDLGVPALGMMTASAASLRDYMAYRTLIDKGYLPVKEERKEDPVPELPPYLVKDLLRVDTSDLEEFAELLARTVTAARRASGLIFNTFPLIETDTLAEIHKALSVPVFAVAPLNKLVPTATASLHGVVQADRGCLQWLDTQQPGSVLYVSFGSMAAMDPHEFVELAWGLADSKRPFVWVVRPNLIRGFESGALPDGVEDEVRGRGIVVAWAPQEEVLAHPAVGGFLTHNGWNSTVEAISEGVPMMCCPRHGDQFGNMRYVCDVWKVGTELVGEQLERGQVKAAIDRLFGTKEGEEIKERMKEFKIAAAKGIGIGVDVDETASPRTDLTDLVDLIKSF | T,C,L,M(1.0) | –
V370I: bx9 SEQ ID NO:1 mutant (protein, Zea mays) MASSRTGAGAGGRVVVFPFPFQGHFNPVMRLARALHARGLAITVFHSGALDPADYPADYRFVPVTVEADPKLLASEDIAAIVTTLNASCDAPFRARLSALLAAEGRDSVRCVFTDVSWNAVLTASSDLGVPALGMMTASAASLRDYMAYRTLIDKGYLPVKEERKEDPVPELPPYLVKDLLRVDTSDLEEFAELLARTVTAARRASGLIFNTFPLIETDTLAEIHKALSVPVFAVAPLNKLVPTATASLHGVVQADRGCLQWLDTQQPGSVLYVSFGSMAAMDPHEFVELAWGLADSKRPFVWVVRPNLIRGFESGALPDGVEDEVRGRGIVVAWAPQEEVLAHPAVGGFLTHNGWNSTVEAISEGVPMICCPRHGDQFGNMRYVCDVWKVGTELVGEQLERGQVKAAIDRLFGTKEGEEIKERMKEFKIAAAKGIGIGVDVDETASPRTDLTDLVDLIKSF | A,I(1.5) | –
